Assay results from patent publication US20230053214.

Target: human tau (441 amino acids), wild-type

B1: human wild-type p38γ (HA-tagged) (protein)
chain: MSSPPPARSGFYRQEVTKTAWEVRAVYRDLQPVGSGAYGAVCSAVDGRTGAKVAIKKLYRPFQSELFAKRAYRELRLLKHMRHENVIGLLDVFTPDETLDDFTDFYLVMPFMGTDLGKLMKHEKLGEDRIQFLVYQMLKGLRYIHAAGIIHRDLKPGNLAVNEDCELKILDFGLARQADSEMTGYVVTRWYRAPEVILNWMRYTQTVDIWSVGCIMAEMITGKTLFKGSDHLDQLKEIMKVTGTPPAEFVQRLQSDEAKNYMKGLPELEKKDFASILTNASPLAVNLLEKMLVLDAEQRVTAGEALAHPYFESLHDTEDEPQVQKYDDSFDDVDRTLDEWKRVTYKEVLSFKPPRQLGARVSKETPL
- in vitro kinase assay with tau variants mutated to alanine: confirmed site-specific phosphorylation of S199, T205, S396 and S404 by p38γ
- in vitro kinase assay, immunoblotting with phosphorylation site specific antibodies: showed phosphorylation of tau at S199, T205, S396 and S404, but not other sites tested by p38γ
